In article PMC3136212 one finds Kd data, which are given here for 3 sequences.

The series has as its target RPA (full-length heterotrimer RPA1/RPA2/RPA3) (human) (UniProt P27694+P15927+P35244). The series is described as follows: FP. To be noted: 18-carbon spacer (sp18) at 5' end; FP: 0.060 uM FAM-oligo, 10-1500 mM NaCl, room temperature; CD: Buffer A 25 mM Tris pH 7.5, 2 mM MgCl2, 6% glycerol, 1 mM DTT, 100 (or 10) mM …. Set-up: unit not given here.

Sequence of RPA (full-length heterotrimer RPA1/RPA2/RPA3) (human) (P27694 whole entry, chain 1 of 3): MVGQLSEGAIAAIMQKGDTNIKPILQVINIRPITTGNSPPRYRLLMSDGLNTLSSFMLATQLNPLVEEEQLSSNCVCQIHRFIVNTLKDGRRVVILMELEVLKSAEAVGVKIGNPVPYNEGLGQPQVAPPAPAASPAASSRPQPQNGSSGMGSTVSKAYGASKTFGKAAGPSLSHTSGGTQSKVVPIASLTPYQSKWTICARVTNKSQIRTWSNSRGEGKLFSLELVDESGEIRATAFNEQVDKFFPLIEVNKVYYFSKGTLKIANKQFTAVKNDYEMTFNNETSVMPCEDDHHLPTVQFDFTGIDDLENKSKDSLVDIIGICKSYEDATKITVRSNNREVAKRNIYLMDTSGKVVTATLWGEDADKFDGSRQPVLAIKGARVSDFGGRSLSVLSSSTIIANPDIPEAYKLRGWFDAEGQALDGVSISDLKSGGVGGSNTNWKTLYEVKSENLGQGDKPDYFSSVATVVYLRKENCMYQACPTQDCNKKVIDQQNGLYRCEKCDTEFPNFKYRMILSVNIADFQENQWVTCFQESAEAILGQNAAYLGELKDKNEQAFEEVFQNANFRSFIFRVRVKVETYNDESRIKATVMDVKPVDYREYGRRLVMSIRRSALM
Sequence of RPA (full-length heterotrimer RPA1/RPA2/RPA3) (human) (P15927 whole entry, chain 2 of 3): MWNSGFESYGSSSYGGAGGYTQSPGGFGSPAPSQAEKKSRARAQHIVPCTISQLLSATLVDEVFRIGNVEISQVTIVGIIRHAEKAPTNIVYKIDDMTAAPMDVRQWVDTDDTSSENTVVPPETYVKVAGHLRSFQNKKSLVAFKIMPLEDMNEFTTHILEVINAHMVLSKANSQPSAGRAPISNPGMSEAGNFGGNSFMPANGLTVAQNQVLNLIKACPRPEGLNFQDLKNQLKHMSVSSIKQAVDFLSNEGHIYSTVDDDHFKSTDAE
Sequence of RPA (full-length heterotrimer RPA1/RPA2/RPA3) (human) (P35244 whole entry, chain 3 of 3): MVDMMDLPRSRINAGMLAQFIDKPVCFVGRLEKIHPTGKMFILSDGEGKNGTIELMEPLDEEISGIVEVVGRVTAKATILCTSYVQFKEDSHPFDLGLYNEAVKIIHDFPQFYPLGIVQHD

As to TAGGGGAAGGGTTGGAGTGGGTT [Gq23 (FP)], the Kd was 0.05.

With ATCCCCTTCCCAACCTCACCCAA [Anti (Comp)], the Kd is 0.07.

Consider AAAAAAAAAAAAAAAAAAAAAAA [polyA], for which the Kd came out at 0.07.
